Results as given in PMC3297495, “A rice transient assay system identifies a novel domain in NRR required for interaction with NH1/OsNPR1 and inhibition of NH1-mediated transcriptional activation” (Plant Methods, 2012).

Tests used:
Gal4:rLG2 = Gal4:rLG2 (rice (Oryza sativa L)); experiment: cell-based or functional assay
Gal4:rTGA2.1 = Gal4:rTGA2.1 (rice (Oryza sativa L)); experiment: cell-based or functional assay

B1: YN:NH1 (natural protein, rice (Oryza sativa L), UniProt Q9FDY4 1-582, looked up)
chain: MEPPTSHVTNAFSDSDSASVEEGGADADADVEALRRLSDNLAAAFRSPEDFAFLADARIAVPGGGGGGGDLLVHRCVLSARSPFLRGVFARRAAAAAGGGGEDGGERLELRELLGGGGEEVEVGYEALRLVLDYLYSGRVGDLPKAACLCVDEDCAHVGCHPAVAFMAQVLFAASTFQVAELTNLFQRRLLDVLDKVEVDNLLLILSVANLCNKSCMKLLERCLDMVVRSNLDMITLEKSLPPDVIKQIIDARLSLGLISPENKGFPNKHVRRIHRALDSDDVELVRMLLTEGQTNLDDAFALHYAVEHCDSKITTELLDLALADVNHRNPRGYTVLHIAARRREPKIIVSLLTKGARPADVTFDGRKAVQISKRLTKQGDYFGVTEEGKPSPKDRLCIEILEQAERRDPQLGEASVSLAMAGESLRGRLLYLENRVALARIMFPMEARVAMDIAQVDGTLEFNLGSGANPPPERQRTTVDLNESPFIMKEEHLARMTALSKTVELGKRFFPRCSNVLDKIMDDETDPVSLGRDTSAEKRKRFHDLQDVLQKAFHEDKEENDRSGLSSSSSSTSIGAIRPRR
**Q.** How did the “UAS-Luc reporter (Luc/Gus) in rice protoplasts: Gal4:rLG2 with untagged NH1 (Ubi-NH1) against Gal4:rLG2 alone (Figure 1)” value (Gal4:rLG2) turn out when B1 was run?
**A.** ~2 fold

**Q.** What about the “UAS-Luc reporter (Luc/Gus) in rice protoplasts: Gal4:rLG2 with untagged NH1 (Ubi-NH1) against Gal4:rLG2 alone (Figure 4A)” value (Gal4:rLG2) of the same binder?
**A.** ~3 fold

**Q.** And the “UAS-Luc reporter (Luc/Gus) in rice protoplasts: Gal4:rTGA2.1 with untagged NH1 (Ubi-NH1) against Gal4:rTGA2.1 alone” value (Gal4:rTGA2.1)?
**A.** ~2 fold
